Measured values taken from EP4785956A2 (CHUGAI SEIYAKU KABUSHIKI KAISHA, dated 2026).

Assays:
[1] = biological target: T1, recombinant MG1-MG2 domain of human C5 beta-chain (human, UniProt P01031 20-225); assay: SPR (BIACORE T200), antibody captured, MG1-MG2 domain injected, pH7.4, 37 degrees C
T1 construct: also called MG1-MG2 domain (1-225) of human C5

recombinant human C5 = biological target: T2, recombinant human C5 (human, UniProt P01031 20-1676); assay: SPR (BIACORE T200), ratio of kd of condition (2) and (1)
T2 construct: The same entry is used here for C5 in normal human serum in the functional rows; also called hC5; rhC5

| binding result [1] | pH dependency (ratio of dissociation rate at pH5.8 to that at pH7.4) (recombinant human C5) | Binder |
| --- | --- | --- |
| no binding (tested: 20 nM and 40 nM) |  | eculizumab-F760G4 (antibody, human IgG4 S228P, kappa) heavy: not shown light: DIQMTQSPSSLSASVGDRVTITCGASENIYGALNWYQQKPGKAPKLLIYGATNLADGVPSRFSGSGSGTDFTLTISSLQPEDFATYYCQNVLNTPLTFGQGTKVEIKRTVAAPSVFIFPPSDEQLKSGTASVVCLLNNFYPREAKVQWKVDNALQSGNSQESVTEQDSKDSTYSLSSTLTLSKADYEKHKVYACEVTHQGLSSPVTKSFNRGEC |
|  | 20.2 | 305LO23-SG115 (antibody, V domains shown) VH: QVQLVESGGGLVQPGGSLRLSCAASGFTVHSSYYMAWVRQAPGKGLEWVSGIFTGSGATYKAEWAKGRVTISKDTSKNQVVLTMTNMDPVDTATYYCASDAGYDYPTHAMHYWGQGTLVTVSS VL: DIQMTQSPSSLSASVGDRVTITCRASQGISSSLAWYQQKPGQAPRLLIYGASTTQSGVPSRFSGSGSGTDFTLTISSLQPEDFATYYCQNTKVGSSYGNTFGGGTKVEIKR |
|  | 17.3 | 305LO20-SG422 (antibody) heavy: QVQLVESGGGLVQPGGSLRLSCAASGFTVHSSYYMAWVRQAPGKGLEWVGAIFTGSGAEYKAEWAKGRVTISKDTSKNQVVLTMTNMDPVDTATYYCASDAGYDYPTHAMHYWGQGTLVTVSSASTKGPSVFPLAPCSRSTSGGTAALGCLVKDYFPEPVTVSWNSGALTSGVHTFPAVLQSSGLYSLSSVVTVPSSSLGTKTYTCNVDHKPSNTKVDKRVESKYGPPCPPCPAPEFRRGPKVFLFPPKPKDTLMISRTPEVTCVVVDVSHEDPEVKFNWYVDGVEVHNAKTKPREEQYNSTYRVVSVLTVLHQDWLNGKEYKCKVSNKGLPSSIEKTISKAKGQPREPQVYTLPPSREEMTKNQVSLTCLVKGFYPSDIAVEWESNGQPENNYKTTPPVLDSDGSFFLYSKLTVDKSRWQQGNVFSCSVLHEALHAHYTRKELSLSP light: DIQMTQSPSSLSASVGDRVTITCRASQGISSSLAWYQQKPGQAPRLLIYGASETESGVPSRFSGSGSGTDFTLTISSLQPEDFATYYCQNTKVGSSYGNTFGGGTKVEIKRTVAAPSVFIFPPSDEQLKSGTASVVCLLNNFYPREAKVQWKVDNALQSGNSQESVTEQDSKDSTYSLSSTLTLSKADYEKHKVYACEVTHQGLSSPVTKSFNRGEC |
